Biological target: endogenous CD64 (FcγRI) on primary human myeloid cells (human (endogenous in primary human monocytes)) (UniProt P12314)
Chain of UniProt P12314 (P12314 16-374): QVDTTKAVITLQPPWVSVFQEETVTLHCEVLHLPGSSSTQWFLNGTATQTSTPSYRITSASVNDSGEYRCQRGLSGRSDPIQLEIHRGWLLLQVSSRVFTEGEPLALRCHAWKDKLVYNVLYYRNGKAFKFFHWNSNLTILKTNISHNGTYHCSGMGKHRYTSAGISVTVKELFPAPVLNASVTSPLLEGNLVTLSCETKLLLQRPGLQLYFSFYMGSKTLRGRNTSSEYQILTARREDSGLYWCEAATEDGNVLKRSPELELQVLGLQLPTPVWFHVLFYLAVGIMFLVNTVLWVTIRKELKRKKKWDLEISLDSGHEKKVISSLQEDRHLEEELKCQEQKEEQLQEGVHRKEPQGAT

| IC50 for inhibiting IL-23 signaling (luciferase in IL-23 reporter cells) in co-culture with R848-stimulated, IFNγ-primed CD64+ THP-1 cells, 16 hours [nM] | Substance |
| --- | --- |
| 0.477 | guselkumab modified to contain LALA mutations in the Fc domain (antibody) |
| 0.092 | guselkumab (antibody) |

Source: publication PMC11937023
